B1: APBB1IP (parent)
chain: PPEPLSQVSMWDQRWQDHQPLLPI
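Note: lentivirally expressed fusions sorted by FACS into six bins by GFP to DsRed ratio, PSI derived from sequencing read proportions per bin multiplied by bin number.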

Variants of: B1
Experiment: protein stability index of a GFP-peptide fusion (GPS, HEK-293T) (PSI 1-6); higher = more stable
Conditions: c terminus: a fixed tail appended
P4L showed a protein stability index of 2.54.
P4Y gave a protein stability index of 2.87.
With P4D the protein stability index was 3.56.
For P4F, the protein stability index was 2.44.
Work on P4C yielded a protein stability index of 2.51.
With P4Q the protein stability index was 3.34.
P4W gave a protein stability index of 2.3.
P4N showed a protein stability index of 2.93.
Work on P4E yielded a protein stability index of 3.34.
For P4S, the protein stability index was 2.61.
With P4M the protein stability index was 2.79.
P4R showed a protein stability index of 2.55.
Work on P4I yielded a protein stability index of 2.52.
With P4T the protein stability index was 3.1.
With P4K the protein stability index was 2.55.
P4V gave a protein stability index of 2.61.
P4A gave a protein stability index of 3.05.
For S9Q, the protein stability index was 3.28.
Variant S9V has a protein stability index of 3.35.
Variant S9T has a protein stability index of 2.99.
S9G showed a protein stability index of 3.35.
With S9L the protein stability index was 2.84.
In the case of S9Y, the protein stability index is reported as 2.57.
Variant S9P has a protein stability index of 3.16.
S9K gave a protein stability index of 3.09.
S9N showed a protein stability index of 3.25.
S9M gave a protein stability index of 3.27.
Work on S9F yielded a protein stability index of 2.95.
Variant S9W has a protein stability index of 2.62.
With S9I the protein stability index was 2.86.
With S9R the protein stability index was 3.27.
Work on S9E yielded a protein stability index of 3.56.
S9C gave a protein stability index of 2.34.
In the case of S9H, the protein stability index is reported as 3.22.
Work on S9D yielded a protein stability index of 3.55.
Work on S9A yielded a protein stability index of 3.4.
Work on E3Q yielded a protein stability index of 2.77.
E3M showed a protein stability index of 2.94.
For E3W, the protein stability index was 2.32.
E3N showed a protein stability index of 3.56.
In the case of E3S, the protein stability index is reported as 3.01.
Variant E3H has a protein stability index of 2.74.
E3D gave a protein stability index of 3.34.
In the case of E3G, the protein stability index is reported as 3.06.
Work on E3R yielded a protein stability index of 3.18.
In the case of E3F, the protein stability index is reported as 2.4.
With E3K the protein stability index was 3.84.
With E3L the protein stability index was 3.07.
Work on E3V yielded a protein stability index of 3.46.
In the case of E3A, the protein stability index is reported as 2.87.
Work on E3I yielded a protein stability index of 2.48.
E3Y gave a protein stability index of 2.27.
In the case of E3C, the protein stability index is reported as 2.48.
For P2F, the protein stability index was 1.92.
Variant P2N has a protein stability index of 3.09.
For P2K, the protein stability index was 2.83.
In the case of P2R, the protein stability index is reported as 2.5.
Work on P2W yielded a protein stability index of 2.07.
Variant P2Q has a protein stability index of 2.52.
P2D gave a protein stability index of 2.95.
With P2I the protein stability index was 2.42.
Variant P2E has a protein stability index of 3.02.
For P2Y, the protein stability index was 2.46.
With P2V the protein stability index was 3.11.
For P2M, the protein stability index was 2.38.
P2A showed a protein stability index of 2.71.
Work on P2C yielded a protein stability index of 2.44.
P2L gave a protein stability index of 2.09.
Variant P2S has a protein stability index of 2.83.
In the case of P2G, the protein stability index is reported as 2.58.
For P2T, the protein stability index was 2.69.
In the case of P2H, the protein stability index is reported as 2.65.
Variant Q7S has a protein stability index of 2.81.
Q7L showed a protein stability index of 2.85.
Work on Q7F yielded a protein stability index of 2.95.
Variant Q7A has a protein stability index of 3.47.
Variant Q7H has a protein stability index of 3.61.
Variant Q7N has a protein stability index of 3.14.
Q7M gave a protein stability index of 2.74.
In the case of Q7W, the protein stability index is reported as 2.05.
For Q7C, the protein stability index was 3.13.
With Q7I the protein stability index was 3.07.
For Q7T, the protein stability index was 3.3.
Q7R showed a protein stability index of 2.93.
With Q7G the protein stability index was 3.25.
Q7D gave a protein stability index of 2.97.
In the case of Q7K, the protein stability index is reported as 2.34.
For Q7V, the protein stability index was 3.33.
With Q7P the protein stability index was 3.25.
Variant Q7E has a protein stability index of 3.56.
Work on Q7Y yielded a protein stability index of 2.27.
In the case of V8C, the protein stability index is reported as 2.22.
V8I gave a protein stability index of 3.25.
In the case of V8M, the protein stability index is reported as 3.22.
V8N gave a protein stability index of 3.36.
V8H showed a protein stability index of 3.21.
V8L showed a protein stability index of 2.77.
Work on V8Y yielded a protein stability index of 2.57.
In the case of V8R, the protein stability index is reported as 2.83.
In the case of V8T, the protein stability index is reported as 2.9.
Variant V8K has a protein stability index of 3.25.
V8W gave a protein stability index of 2.21.
In the case of V8A, the protein stability index is reported as 3.02.
With V8E the protein stability index was 3.48.
With V8S the protein stability index was 3.52.
Work on V8P yielded a protein stability index of 3.12.
In the case of V8D, the protein stability index is reported as 4.03.
V8G showed a protein stability index of 3.38.
V8Q gave a protein stability index of 2.9.
Variant V8F has a protein stability index of 2.51.
Work on M10A yielded a protein stability index of 3.52.
S6L gave a protein stability index of 2.85.
S6C gave a protein stability index of 2.46.
In the case of S6I, the protein stability index is reported as 2.71.
S6K gave a protein stability index of 2.81.
S6Y showed a protein stability index of 2.09.
S6D showed a protein stability index of 3.45.
In the case of S6N, the protein stability index is reported as 2.93.
S6T showed a protein stability index of 2.76.
S6V gave a protein stability index of 2.73.
In the case of S6P, the protein stability index is reported as 3.65.
Work on S6M yielded a protein stability index of 2.82.
Work on S6R yielded a protein stability index of 3.36.
S6F gave a protein stability index of 2.23.
S6A gave a protein stability index of 3.09.
S6G gave a protein stability index of 2.9.
S6Q gave a protein stability index of 3.28.
With S6H the protein stability index was 2.71.
Variant S6E has a protein stability index of 3.15.
For L5W, the protein stability index was 2.2.
Work on L5M yielded a protein stability index of 2.88.
L5S showed a protein stability index of 3.26.
In the case of L5F, the protein stability index is reported as 3.
In the case of L5H, the protein stability index is reported as 3.54.
In the case of L5E, the protein stability index is reported as 3.57.
Work on L5N yielded a protein stability index of 3.31.
L5I gave a protein stability index of 2.72.
With L5D the protein stability index was 3.58.
In the case of L5C, the protein stability index is reported as 3.75.
L5Q gave a protein stability index of 3.53.
In the case of L5A, the protein stability index is reported as 3.74.
For L5V, the protein stability index was 2.99.
With L5T the protein stability index was 3.19.
With L5R the protein stability index was 3.62.
Variant L5Y has a protein stability index of 2.71.
For L5P, the protein stability index was 3.88.
For L5K, the protein stability index was 2.71.
For L5G, the protein stability index was 3.05.
P1D showed a protein stability index of 3.31.
With P1L the protein stability index was 2.02.
P1R showed a protein stability index of 2.54.
For P1T, the protein stability index was 3.37.
P1W gave a protein stability index of 2.48.
P1G showed a protein stability index of 1.94.
Work on P1Y yielded a protein stability index of 1.72.
Work on P1F yielded a protein stability index of 2.17.
Variant P1C has a protein stability index of 2.34.
In the case of P1V, the protein stability index is reported as 2.23.
Work on P1K yielded a protein stability index of 2.73.
P1M showed a protein stability index of 3.28.
Variant P1E has a protein stability index of 2.84.
P1A gave a protein stability index of 2.64.
P1Q gave a protein stability index of 2.89.
P1I showed a protein stability index of 2.39.
Work on P1N yielded a protein stability index of 2.87.
Work on P1H yielded a protein stability index of 3.07.
Work on P1S yielded a protein stability index of 2.87.

Reference: the supplement of paper PMC10567573
